Measurements from patent publication US20250361297A1, “ANTI- SIGLEC-15 BINDING MOLECULES AND METHODS OF USE” (ADAPTAM THERAPEUTICS, S.L., priority 2024, published 2025).

Legend:
[1] = system: recombinant cynomolgus Siglec-15 protein; assay: ELISA binding to recombinant cynomolgus Siglec-15 protein; set-up: species or system cynomolgus monkey; details: ELISA (FIG. 11B)
Method: Binding to human, cynomolgus and mouse Siglec-15 by ELISA: 96-well micro plates were coated with 50 μl of 2 μg/ml cynomolgus Siglec-15-his protein (Bonopusbio, CW70-50 ug), or 2 μg/ml mouse Siglec-15-his protein (Bonopusbio, CW71-50 ug), or 2 μg/ml human Siglec-15-his protein (Bonopusbio, CW37-50 ug) in carbonate/bicarbonate buffer (pH 9.6) overnight at 4° C. ELISA plates were washed once with wash buffer (PBS+0.1% v/v Tween-20, PBST) and then blocked with 200 μl/well blocking buffer (3% w/v non-fatty milk in PBST) 1 hour at room temperature. Plates were washed 3 times and incubated with […] serially diluted anti-Siglec-15 antibodies of the disclosure or controls (starting at 198 nM, 3-fold serial dilution in PBST with 1% w/v non-fatty milk) for 2 hours at room temperature. ELISA plates were washed 3 times again and incubated with Peroxidase Goat anti-Human IgG Fc Secondary Antibody (100 μl, 1:5000 dilution in PBST buffer, A18817 Thermo Scientific) for 1 hour at room temperature. After another 3 washes, plates were incubated with 100 μl/well TMB (N301, Thermo Scientific). The reaction was stopped 2 minutes later at room temperature with 50 μl of STOP solution (N600, Thermo Scientific), and the absorbance of each well was read on a NIVO microplate reader at 450. OD values were plotted against antibody concentration. Data was analyzed using Graphpad Prism software.

[2] = biological target: T1, Siglec-15 on human macrophages (Homo sapiens, UniProt Q6ZMC9); assay: Flow cytometry binding to Siglec-15 positive human macrophages; details: compared to clone 5G12 (FIG. 3)
T1 construct: endogenous in cells; host or cells: human monocyte-derived macrophages from donor PBMCs
T1 sequence (Q6ZMC9 20-328): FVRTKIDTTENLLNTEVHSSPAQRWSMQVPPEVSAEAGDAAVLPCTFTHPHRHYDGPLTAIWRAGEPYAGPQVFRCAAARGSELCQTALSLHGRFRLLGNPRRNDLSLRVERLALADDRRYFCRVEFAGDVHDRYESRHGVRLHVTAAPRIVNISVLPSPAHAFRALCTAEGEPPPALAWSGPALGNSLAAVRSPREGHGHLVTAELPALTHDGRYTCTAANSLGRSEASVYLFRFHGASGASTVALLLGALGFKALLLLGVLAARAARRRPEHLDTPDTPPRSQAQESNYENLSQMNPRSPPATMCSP
Method: Post-polarization, the macrophages were harvested, washed using Flow Cytometry Staining Buffer (00-4222-26, Thermo Fisher Scientific), and subsequently incubated with fluorochrome-conjugated antibodies against Siglec-15, PD-L1, CD206, and CD163. This step was performed for 30 minutes at 4° C. in a dark environment to prevent photobleaching of the fluorochromes and to maintain the integrity of the antibodies.
Following incubation, the cells underwent a second washing step and then resuspended in 200 μL of Flow Cytometry Staining Buffer containing DAPI (1:10,000) (D1306, Invitrogen). DAPI is a nuclear stain that facilitates the identification of viable cells and enables the exclusion of dead cells or debris during analysis. The stained cells were analyzed using a FACSymphony flow cytometer (BD Biosciences). The flow cytometry data were then processed and analyzed using FlowJo software (BD Biosciences).

[3] = biological target: T2, human Siglec-15 (Homo sapiens, UniProt Q6ZMC9); assay: Competitive flow cytometry assay with benchmark antibodies; type: binding
T2 construct: expressed in transfected cells
T2 sequence (Q6ZMC9 20-328): T1 sequence (Q6ZMC9 20-328)
Method: Epitope mapping assay by Flow cytometry: Competition with benchmark mouse IgG antibodies: 50,000 cells/well of THP-1 S15 OE were added to a round bottom 96 well plate, and centrifuged at 450×G for 5 minutes, and the supernatant was discarded. Human anti-siglec-15 IgG antibodies (starting at 198 nM, 3-fold serial dilution in staining buffer) were added to 100 μl of staining buffer and cells were resuspended with it and incubated for 40 minutes on ice. 100 μl of staining buffer were added to wells, centrifuged at 450× G for 5 minutes and the supernatants discarded. Benchmark mouse IgG antibodies were diluted at 33.3 nM and cells resuspended in 100 μl of the mix and incubated for 40 minutes on ice. Then, 100 μl of staining buffer were added to wells, centrifuged at 450×G for 5 minutes and the supernatants discarded. The secondary antibody anti-mouse IgG-Alexa647 was prepared at 1:200 dilution in 100 μl of staining buffer and added to each well, and cells were incubated for 40 minutes on ice. Cells were washed with 100 μl of staining buffer and centrifuged at 450×G for 5 minutes to discard the supernatant. Cells were resuspended in 150 μl of staining buffer and acquired in a flow cytometer.

[4] = system: Siglec-15 positive cells; assay: Internalization assay (Zenon pHrodo iFL Green); type: cell-based
Method: Internalization assay (Zhenon pHrodo): Sufficient volumes of 4× working solution of anti-Siglec-15 antibodies (10 nM) were prepared in cell culture medium for a total of 25 μL for each well of a 96-well plate. A working solution of Zenon™ pHrodo™ iFL IgG Labeling Reagent was prepared at 30 nM and 25 μL were added to each well. The mix was incubated for 5 minutes at room temperature to allow the labeling complexes to form. 5 mL of suspension cells at 2×10^6 cells/mL in cell culture medium were prepared and 50 μL of cells were added to each well of the 96-well plate containing the mix of anti-Siglec-15 antibody and the Zenon™ labeling reagent. Cells were incubated with the labeling complex for different timepoints (1-24 hours) under standard cell culture conditions. Fluorescence was analyzed by flow cytometry.

recombinant cynomolgus Siglec-15 protein, sequence (as listed by the source): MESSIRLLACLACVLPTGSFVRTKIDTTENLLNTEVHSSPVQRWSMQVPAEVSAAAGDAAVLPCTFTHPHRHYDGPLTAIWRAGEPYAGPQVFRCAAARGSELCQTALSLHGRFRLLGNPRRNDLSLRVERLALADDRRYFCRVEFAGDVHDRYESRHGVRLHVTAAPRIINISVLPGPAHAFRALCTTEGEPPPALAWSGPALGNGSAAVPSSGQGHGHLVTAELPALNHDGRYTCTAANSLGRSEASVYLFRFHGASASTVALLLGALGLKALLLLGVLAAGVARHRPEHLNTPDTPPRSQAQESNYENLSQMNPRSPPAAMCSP

B1: S15B1: parental mouse anti-Siglec-15 monoclonal antibody from hybridoma; VH SEQ ID NO: 18, VL SEQ ID NO: 19 (antibody, V domains shown)
VH: QVQLQQSGPELVKPGASVKISCKASGYAFSSSWMNWVKQRPGKGLEWIGRIYPGHGETNYNGKFKDKATVTADKSSSTTYMQLSSLTSEDSAVYFCARVDNSDPYYFDYWGQGTTLTVSS
VL: DIVLTQSPASLAVSLGQRATISCRASKSVSTSGYSYMHWYQQKPGQPPKLLIYLASNLESGVPARFSGSGSGTDFTLNIHPVEEEDAATYYCQHGRELPFTFGSGTKLEIK
modifications: Clone S15B1 VH; Clone S15B1 VL
extent of binding to cynomolgus Siglec-15 relative to 5G12 [1]: higher extent than 5G12 | binding to Siglec-15 on human macrophages [2]: superior binding | inhibition of binding of 5G12 (benchmark 1) ([3]; competitive flow cytometry (FIG. 18A)): outperformed A2A5C7E8 | inhibition of binding of A2A5C7E8 (benchmark 2) ([3]; competitive flow cytometry (FIG. 18B)): outperformed 5G12 | percentage of cells that internalized the antibody ([4]; Zenon pHrodo iFL Green label, 24 hours at 37° C.): 100% | internalization, fold increase over isotype control ([4]; kinetics over 1, 2, 4, 16, and 24 hours): approximately 6 fold
